{
  "source": "patent US20040053370A1",
  "about": "(Eli Lilly, published 2004)",
  "note": "Ends that are not written are not given here.",
  "data": [
    {"biological_target": "GLP-1 receptor", "assay": "cell-based or functional assay", "values": [
      {"binder": "HVEGTFTSDVSSYLEGQAAKEFIDWLVKGRG", "note": "[Val^8-Asp^30-GLP-1(7-37)OH]", "GLP-1 Receptor Activation": "0.15 fold of GLP-1(7-37)OH"},
      {"binder": "HVEGTFTSDVSSYLEGQAAKEFISWLVKGRG", "note": "[Val^8-Ser^30-GLP-1(7-37)OH]", "GLP-1 Receptor Activation": "0.19 fold of GLP-1(7-37)OH"},
      {"binder": "HVEGTFTSDVSSYLEGQAAKEFIHWLVKGRG", "note": "[Val^8-His^30-GLP-1(7-37)OH]", "GLP-1 Receptor Activation": "0.19 fold of GLP-1(7-37)OH"},
      {"binder": "HVEGTFTSDVSSYLEGQAAKEFIAWLEKGRG", "note": "[Val^8-Glu^33-GLP-1(7-37)OH]", "GLP-1 Receptor Activation": "0.039 fold of GLP-1(7-37)OH"},
      {"binder": "HVEGTFTSDVSSYLEGQAAKEFIAWLAKGRG", "note": "[Val^8-Ala^33-GLP-1(7-37)OH]", "GLP-1 Receptor Activation": "0.1 fold of GLP-1(7-37)OH"},
      {"binder": "HVEGTFTSDVSSYLEGQAAKEFIAWLGKGRG", "note": "[Val^8-Gly^33-GLP-1(7-37)OH]", "GLP-1 Receptor Activation": "0.01 fold of GLP-1(7-37)OH"},
      {"binder": "HVEGTFTSDVSSYLEGQAAKEFIAWLVEGRG", "note": "[Val^8-Glu^34-GLP-1(7-37)OH]", "GLP-1 Receptor Activation": "0.17 fold of GLP-1(7-37)OH"},
      {"binder": "HVEGTFTSDVSSYLEGQAAKEFIAWLVKPRG", "note": "[Val^8-Pro^35-GLP-1(7-37)OH]", "GLP-1 Receptor Activation": "0.094 fold of GLP-1(7-37)OH"},
      {"binder": "HVEGTFTSDVSSYLEGQAAKEFIAWLVKHRG", "note": "[Val^8-His^35-GLP-1(7-37)OH]", "GLP-1 Receptor Activation": "0.41 fold of GLP-1(7-37)OH"},
      {"binder": "HVEGTFTSDVSSYLEGQAAKEFIAWLVKERG", "note": "[Val^8-Glu^35-GLP-1(7-37)OH]", "GLP-1 Receptor Activation": "0.15 fold of GLP-1(7-37)OH"},
      {"binder": "HVEGTFTSDVSSYLEGQAAKEFIAWLVKGEG", "note": "[Val^8-Glu^36-GLP-1(7-37)OH]", "GLP-1 Receptor Activation": "0.11 fold of GLP-1(7-37)OH"},
      {"binder": "HVEGTFTSDVSSYLEGQAAKEFIAWLVKGHG", "note": "[Val^8-His^36-GLP-1(7-37)OH]", "GLP-1 Receptor Activation": "0.22 fold of GLP-1(7-37)OH"},
      {"binder": "HVEGTFTSDVSSYLEGQAAKEFIAWLVKGRH", "note": "[Val^8-His^37-GLP-1(7-37)OH]", "GLP-1 Receptor Activation": "0.33 fold of GLP-1(7-37)OH"},
      {"binder": "HVEGTFTSDLSSYLEGQAAEEFIAWLVKGRG", "note": "[Val^8-Leu^16-Glu^26-GLP-1(7-37)OH]", "GLP-1 Receptor Activation": "0.23 fold of GLP-1(7-37)OH"},
      {"binder": "HVEGTFTSDVSSYLEKQAAKEFIEWLVKGRG", "note": "[Val^8-Lys^22-Glu^30-GLP-1(7-37)OH]", "GLP-1 Receptor Activation": "0.37 fold of GLP-1(7-37)OH"},
      {"binder": "HVEGTFTSDVSSYLEKEAAKEFIAWLVKGRG", "note": "[Val^8-Lys^22-Glu^23-GLP-1(7-37)OH]", "GLP-1 Receptor Activation": "0.35 fold of GLP-1(7-37)OH"},
      {"binder": "HVEGTFTSDVSSYLEEKAAKEFIAWLVKGRG", "note": "[Val^8-Glu^22-Lys^23-GLP-1(7-37)OH]", "GLP-1 Receptor Activation": "1.43 fold of GLP-1(7-37)OH"},
      {"binder": "HVEGTFTSDVSSYLEGQAAKEFIAWLKVGRG", "note": "[Val^8-Lys^33-Val^34-GLP-1(7-37)OH]", "GLP-1 Receptor Activation": "0.08 fold of GLP-1(7-37)OH"},
      {"binder": "HVEGTFTSDVSSYLEGQAAKEFIAWLVGKRG", "note": "[Val^8-Gly^34-Lys^35-GLP-1(7-37)OH]", "GLP-1 Receptor Activation": "0.34 fold of GLP-1(7-37)OH"},
      {"binder": "HVEGTFTSDVSSYLEGQAAKEFIAWLVKGGP-NH2", "note": "[Val^8-Gly^36-Pro^37-GLP-1(7-37)NH2]", "GLP-1 Receptor Activation": "0.53 fold of GLP-1(7-37)OH"}
    ]},
    {"biological_target": "GLP-1 receptor", "assay": "cell-based or functional assay", "remark": "another data set of the same source", "values": [
      {"binder": "HVEGTFTSDVSSYFEEQAAKEFIAWLVKGRG", "note": "[Val^8-Phe^20-Glu^22-GLP-1(7-37)OH]", "GLP-1 Receptor Activation": "1.27 fold of GLP-1(7-37)OH"},
      {"binder": "HVEGTFTSDVSSYLEEQALKEFIAWLVKGRG", "note": "[Val^8-Glu^22-Leu^25-GLP-1(7-37)OH]", "GLP-1 Receptor Activation": "1.32 fold of GLP-1(7-37)OH"},
      {"binder": "HVEGTFTSDVSSYLEEQAIKEFIAWLVKGRG", "note": "[Val^8-Glu^22-Ile^25-GLP-1(7-37)OH]", "GLP-1 Receptor Activation": "1.46 fold of GLP-1(7-37)OH"},
      {"binder": "HVEGTFTSDVSSYLEEQAAKIFIAWLVKGRG", "note": "[Val^8-Glu^22-Ile^27-GLP-1(7-37)OH]", "GLP-1 Receptor Activation": "0.94 fold of GLP-1(7-37)OH"},
      {"binder": "HVDGIFTSDYSSYLEEQAAKEFIAWLVKGRG", "note": "[Val^8-Asp^9-Ile^11-Tyr^16-Glu^22-GLP-1(7-37)OH]", "GLP-1 Receptor Activation": "2.02 fold of GLP-1(7-37)OH"},
      {"binder": "HVEGTFTSDYSSWLEEQAAKEFIAWLVKGRG", "note": "[Val^8-Tyr^16-Trp^19-Glu^22-GLP-1(7-37)OH]", "GLP-1 Receptor Activation": "1.64 fold of GLP-1(7-37)OH"},
      {"binder": "HVEGTFTSDWSSYLEEQAVKEFIAWLIKGRG", "note": "[Val^8-Trp^16-Glu^22-Val^25-Ile^33-GLP-1(7-37)OH]", "GLP-1 Receptor Activation": "2.35 fold of GLP-1(7-37)OH"},
      {"binder": "HVEGTFTSDCSSYLEGQAAKEFIAWLVKGRG", "note": "[Val^8-Cys^16-Lys^26-GLP-1(7-37)OH]", "GLP-1 Receptor Activation": "1.97 fold of GLP-1(7-37)OH"},
      {"binder": "HGEGTFTSDVSSYLEGQAAKEFIAWLVKGRG", "note": "[Gly^8-GLP-1(7-37)OH]", "GLP-1 Receptor Activation": "0.8 fold of GLP-1(7-37)OH"},
      {"binder": "HVEGTYTSDVSSYLEGQAAKEFIAWLVKGR-NH2", "note": "[Val^8-Tyr^12-GLP-1(7-36)NH2]", "GLP-1 Receptor Activation": "0.52 fold of GLP-1(7-37)OH"},
      {"binder": "HVEGTWTSDVSSYLEGQAAKEFIAWLVKGRG", "note": "[Val^8-Trp^12-GLP-1(7-37)OH]", "GLP-1 Receptor Activation": "0.52 fold of GLP-1(7-37)OH"},
      {"binder": "HVEGTFTSDLSSYLEGQAAKEFIAWLVKGRG", "note": "[Val^8-Leu^16-GLP-1(7-37)OH]", "GLP-1 Receptor Activation": "0.52 fold of GLP-1(7-37)OH"},
      {"binder": "HVEGTFTSDVSSYLEGQALKEFIAWLVKGRG", "note": "[Val^8-Leu^25-GLP-1(7-37)OH]", "GLP-1 Receptor Activation": "0.24 fold of GLP-1(7-37)OH"},
      {"binder": "HVEGTYTSDYSSYLEGQAAKEFIAWLVKGRG", "note": "[Val^8-Tyr^12-Tyr^16-GLP-1(7-37)OH]", "GLP-1 Receptor Activation": "0.7 fold of GLP-1(7-37)OH"},
      {"binder": "HVEGTWTSDVSSYLEEQAAKEFIAWLVKGRG", "note": "[Val^8-Trp^12-Glu^22-GLP-1(7-37)OH]", "GLP-1 Receptor Activation": "0.8 fold of GLP-1(7-37)OH"},
      {"binder": "HVEGTYTSDVSSYLEEQAAKEFIAWLVKGRG", "note": "[Val^8-Tyr^12-Glu^22-GLP-1(7-37)OH]", "GLP-1 Receptor Activation": "1.27 fold of GLP-1(7-37)OH"},
      {"binder": "HVEGTFTSDYSSFLEGQAAKEFIAWLVKGRG", "note": "[Val^8-Tyr^16-Phe^19-GLP-1(7-37)OH]", "GLP-1 Receptor Activation": "1.32 fold of GLP-1(7-37)OH"},
      {"binder": "HVEGTFTSDLSSYLEEQAAKEFIAWLVKGRG", "note": "[Val^8-Leu^16-Glu^22-GLP-1(7-37)OH]", "GLP-1 Receptor Activation": "2.02 fold of GLP-1(7-37)OH"},
      {"binder": "HVEGTFTSDISSYLEEQAAKEFIAWLVKGRG", "note": "[Val^8-Ile^16-Glu^22-GLP-1(7-37)OH]", "GLP-1 Receptor Activation": "1.55 fold of GLP-1(7-37)OH"},
      {"binder": "HVEGTFTSDFSSYLEEQAAKEFIAWLVKGRG", "note": "[Val^8-Phe^16-Glu^22-GLP-1(7-37)OH]", "GLP-1 Receptor Activation": "1.08 fold of GLP-1(7-37)OH"},
      {"binder": "HVEGTFTSDVSFYLEEQAAKEFIAWLVKGRG", "note": "[Val^8-Phe^18-Glu^22-GLP-1(7-37)OH]", "GLP-1 Receptor Activation": "0.94 fold of GLP-1(7-37)OH"},
      {"binder": "HVEGTFTSDVSIYLEEQAAKEFIAWLVKGRG", "note": "[Val^8-Ile^18-Glu^22-GLP-1(7-37)OH]", "GLP-1 Receptor Activation": "1.88 fold of GLP-1(7-37)OH"},
      {"binder": "HVEGTFTSDVSKYLEEQAAKEFIAWLVKGRG", "note": "[Val^8-Lys^18-Glu^22-GLP-1(7-37)OH]", "GLP-1 Receptor Activation": "1.18 fold of GLP-1(7-37)OH"}
    ]}
  ]
}
